“Also recorded” adds a separate entry of the source.
Columns and labels:
[1] = system: ABA-inducible wheat Em promoter; test: Em-GUS reporter transactivation in transiently transformed maize mesophyll protoplasts; format: cell-based; details: for Transactivation of Em-GUS expression by overexpressed effector: maize mesophyll protoplasts, effector overexpressed alone
Protocol: Plant Materials. Maize mesophyll protoplasts were isolated from 20-hr illuminated leaves of 10 day old maize seedlings that had been kept in the dark at 25° C. The middle part of the second leaves (about 6 cm in length) was cut into 0.5 mm strips with a razor blade and digested in an enzyme solution containing 1% (w/v) cellulose RS, 0.1% (w/v) macerozyme R10 (Yakult Honsha, Nishinomiya, Japan), 0.6 M mannitol, 10 mM MES (pH 5.7), 1 mM CaCl2, 1 mM MgCl2, 10 mM β-mercaptoethanol, and 0.1% BSA (w/v) for 3 hr at room temperature. Protoplasts were released by shaking on a rotary shaker at 80 rpm for 10 min and were filtered through a 70 μm nylon filter. Protoplasts were collected by centrifugation at 100 g for 2 min, washed in cold 0.6 M mannitol solution, centrifuged, and resuspended at 2×10^6/mL in cold 0.6 M mannitol. Electroporation conditions were 400 V/cm, 200 μF, 10 msec, and two pulses with a Biorad GenePulser apparatus. Each sample contained 5×10^4 protoplasts and about 50 μg DNA in 0.3 mL of 0.6 M mannitol and 20 mM KCl.
(§1) Plasmid pBM207 contains the wheat (Triticum aestivum) Early Methionine-labeled (Em) promoter driving the expression of GUS, encoded by uida from Escherichia coli. Plasmid pDH359 contains ABI5 cDNA driven by Ubiquitin promoter. Plasmid pCR349.13S contains the 35S promoter driving the VP1 sense cDNA. Plasmid pDirect2.6 contains the Ubi promoter in a reverse orientation and was used as control construct to balance the total amount of input plasmid DNA between various treatments. Plasmid pAHC 18 contains the Ubi promoter driving firefly (Photinus pyralis) LUC cDNA and was included in transformations to provide an internal reference for non-ABA-inducible transient transcription in reporter enzyme assays. ABF1-ABF4, AREB3, and DPBF4 were amplified by PCR using gene-specific primers from an Arabidopsis cDNA library (Minet et al. Plant J. 2:417 (1992)) and were cloned into plasmid pDH349 (Gampala et al. J. Biol. Chem. 277: 1689 (2002)) containing the maize Ubiquitin promoter and nopaline synthase 3′ termination signals.
The values in FIG. 2 are the average (±S.E.M.) of four replicate transformations.
To test the involvement of ABI3-Like B3 domain transcription factors in ABA signaling, ABA-inducible reporter gene transactivation by the B3 domain-containing RAV2 was assayed in maize mesophyll protoplasts transiently co-transformed with a full length cDNA under transcriptional control of the Ubiquitin promoter. Activation of Em-GUS reporter gene expression by RAV2, relative to non-ABA inducible Ubi-LUC reference reporter as internal control, and functional interactions of RAV2 with VP1, ABI5, and the ABI5-Like ABF3 were compared in protoplasts treated with or without 100 uM ABA (see FIG. 3).

[2] = system: ABA-inducible wheat Em promoter; test: Em-GUS reporter transactivation in transiently transformed rice protoplasts; format: cell-based, Oryza sativa; details: for Transactivation of Em-GUS expression by overexpressed effector: effector overexpressed alone, average of four replicate transformations
Protocol: Embryonic rice (Oryza sativa) callus cultures (Radon 6 from the International Rice Research Institute, Los Bafios, Phillipines) were obtained. Embryonic rice callus cultures were grown as suspensions in liquid culture as well as on phytagel plates containing MS medium supplemented with 2.0 mg/L 2,4-D. Cultures were propagated and digested for making protoplasts as previously described except that 10 mM HEPES (Sigma, St. Louis, Mo., USA), pH 5.6, was substituted for phosphate in the Krens'F medium, and 2% (weight/volume; w/v) cellulase YC, 0.35% (w/v) macerozyme, and 0.1% (w/v) pectolyase Y23 were used for overnight digestion (Karlan Research Products, Santa Rosa, CA, USA). Protoplasts were transformed with various mixtures of DNA reporter and effector constructs using polyethylene glycol precipitation. Transformed protoplasts were incubated with or without 100 μM ABA for 16 h in the dark in Krens solution before quantifying β-glucuronidase (GUS) and luciferase (LUC) reporter enzyme activities as previously described. ABA was dissolved and stored in absolute ethanol at −20° C. as a 0.1 M stock solution. Prior to use, required dilutions of ABA were made in Krens solution, and control samples received the same volume of solvent as in ABA treatments.
as §1
Simultaneously, it has been shown that ABF2, ABF3 and ABF4 overexpression in transgenic Arabidopsis results in ABA hypersensitivity and other ABA-associated phenotypes such as altered ABA-inducible gene expression and glucose signaling, reduced transpiration, and enhanced drought tolerance. The functional roles of the ABI5-like family members ABF1-ABF4 in regulation of ABA-inducible gene expression in rice protoplasts were tested and the results are shown in FIG. 1. […] Protoplasts were transformed with Em-GUS and a “dummy” effector construct (pD2.6 containing only the Ubiquitin promoter used to drive effector expression) or co-transformed with a Ubi-ABF construct and treated with or without 100 μM ABA. The values shown in FIG. 1A are the average (±S.E.M.) of four replicate transformations.
Rice protoplasts were transformed with either Em-GUS alone or in pairwise combinations of Ubi-ABF3, Ubi-ABI5, or 35S-VP1. The values in FIG. 1B are the average (±S.E.M.) of four replicate transformations. ABF3 is a related member of the ABI5-family of bZIP transcription factors.

Row | Molecule | Synergy with co-transformed VP1 on Em-GUS expression [1] | Synergy with exogenous ABA on Em-GUS expression [1] | Transactivation of Em-GUS expression by overexpressed effector [1] | Synergy with exogenous ABA on Em-GUS expression ([2]; 100 μM ABA, 16 h) | Synergistic activity with VP1 relative to that of ABI5 with VP1 ([2]; co-expressed with VP1) | Transactivation of Em-GUS expression by overexpressed effector [2] | Synergy with co-expressed VP1 on Em-GUS expression ([2]; pairwise co-transformation with 35S-VP1) | Synergy with co-expressed ABI5 on Em-GUS expression ([2]; pairwise co-transformation with Ubi-ABI5)
1 | ABF3: Arabidopsis ABI5-like ABA-Response Element-Binding Factor, bZIP, At4g34000 (protein) MGSRLNFKSFVDGVSEQQPTVGTSLPLTRQNSVFSLTFDEFQNSWGGGIGKDFGSMNMDELLKNIWTAEESHSMMGNNTSYTNISNGNSGNTVINGGGNNIGGLAVGVGGESGGFFTGGSLQRQGSLTLPRTISQKRVDDVWKELMKEDDIGNGVVNGGTSGIPQRQQTLGEMTLEEFLVRAGVVREEPQPVESVTNFNGGFYGFGSNGGLGTASNGFVANQPQDLSGNGVAVRQDLLTAQTQPLQMQQPQMVQQPQMVQQPQQLIQTQERPFPKQTTIAFSNTVDVVNRSQPATQCQEVKPSILGIHNHPMNNNLLQAVDFKTGVTVAAVSPGSQMSPDLTPKSALDASLSPVPYMFGRVRKTGAVLEKVIERRQKRMIKNRESAARSRARKQAYTMELEAEIAQLKELNEELQKKQVEIMEKQKNQLLEPLRQPWGMGCKRQCLRRTLTGPW | can synergize with co-transformed VP1 | synergize with exogenous ABA | sufficient for transactivation of the Em promoter; also recorded: sufficient for specific Em-GUS transactivation; also recorded: sufficient to transactivate Em-GUS expression | strong; also recorded: acted in synergy with ABA; also recorded: interacts synergistically | about twice the synergistic activity seen between ABI5 and VP1 | sufficient for transactivation of the Em promoter; also recorded: transactivated the Em promoter; also recorded: sufficient to transactivate ABA-inducible Em-GUS expression | synergized with each other and with ABA; also recorded: interacts synergistically | did not result in synergy
2 | ABF2: Arabidopsis ABI5-like ABA-Response Element-Binding Factor, bZIP, At1g45249 (protein, listed as Arabidopsis thaliana) MDGSMNLGNEPPGDGGGGGGLTRQGSIYSLTFDEFQSSVGKDFGSMNMDELLKNIWSAEETQAMASGVVPVLGGGQEGLQLQRQGSLTLPRTLSQKTVDQVWKDLSKVGSSGVGGSNLSQVAQAQSQSQSQRQQTLGEVTLEEFLVRAGVVREEAQVAARAQIAENNKGGYFGNDANTGFSVEFQQPSPRVVAAGVMGNLGAETANSLQVQGSSLPLNVNGARTTYQQSQQQQPIMPKQPGFGYGTQMGQLNSPGIRGGGLVGLGDQSLTNNVGFVQGASAAIPGALGVGAVSPVTPLSSEGIGKSNGDSSSLSPSPYMFNGGVRGRKSGTVEKVVERRQRRMIKNRESAARSRARKQAYTVELEAEVAKLKEENDELQRKQARIMEMQKNQETEMRNLLQGGPKKKLRRTESGPW | not | lower levels of ABA synergy compared to ABF3 and ABF4 |  |  |  | no effect on Em-GUS expression |  | 
3 | ABF4: Arabidopsis ABI5-like ABA-Response Element-Binding Factor, bZIP, At3g19290 (protein, listed as Arabidopsis thaliana) MGTHINFNNLGGGGHPGGEGSSNQMKPTGSVMPLARQSSVYSLTFDELQNTLGGPGKDFGSMNMDELLKSIWTAEEAQAMAMTSAPAATAVAQPGAGIPPPGGNLQRQGSLTLPRTISQKTVDEVWKCLITKDGNMEGSSGGGGESNVPPGRQQTLGEMTLEEFLFRAGVVREDNCVQQMGQVNGNNNNGFYGNSTAAGGLGFGFGQPNQNSITFNGTNDSMILNQPPGLGLKMGGTMQQQQQQQQLLQQQQQQMQQLNQPHPQQRLPQTIFPKQANVAFSAPVNITNKGFAGAANNSINNNNGLASYGGTGVTVAATSPGTSSAENNSLSPVPYVLNRGRRSNTGLEKVIERRQRRMIKNRESAARSRARKQAYTLELEAEIEKLKKTNQELQKKQAEMVEMQKNELKETSKRPWGSKRQCLRRTLTGPW | no functional interactions with VP1 and not | synergize with exogenous ABA | sufficient for transactivation of the Em promoter; also recorded: sufficient to transactivate Em-GUS expression |  |  | sufficient for transactivation of the Em promoter; also recorded: sufficient to transactivate ABA-inducible Em-GUS expression |  | 
